We go through 83 variants from the RNAGym collection of RNA variant scans (doi:10.1093/molbev/msab373).

The labels stand for the following.
B1: Azoarcus group I ribozyme (parent)
chain: GUGCCUUGCGCCGGGAAACCACGCAAGGGAUGGUGUCAAAUUCGGCGAAACCUAAGCGCCCGCCCGGGCGUAUGGCAACGCCGAGCCAAGCUUCGGCGCCUGCGCCGAUGAAGGUGUAGAGACUAGACGGCACCCACCUAAGGCAAACGCUAUGGUGAAGGCAUAGUCCAGGGAGUGGCGAAAGUCACACAAACCGG

Variants of B1 are the subject of this data set. In words: reverse-splicing fitness (ratio to wild type); higher = more active; in vitro selection; Mg2+ level not given. Summed up:
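An in vitro group I ribozyme library with randomized positions was T7-transcribed and gel-purified. In triplicate, 10 pmol RNA in EPPS pH 7.5 was reacted with 50 pmoles of a 30-nt RNA substrate for 1 h at 37 °C across several added MgCl2 levels (1–48 mM), then stopped with EDTA. Products were reverse transcribed from a substrate-complementary primer, PCR-amplified and sequenced (HiSeq 4000). Fitness is a variant's read proportion after selection over that before, normalised to wild type.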
C82A A111G A145C C150G U176G: the reverse-splicing fitness amounted to 0.00447.
Then C82A A111G A145C C150G U176A, with 0.00908; and C82A A111G A145C C150G U176C, with 0.0181; and C82A A111G A145C C169U U176G, with 0.00571.
The figure for C82A A111G A145C C169U U176A is 0.013; for C82A A111G A145C C169U U176C it is 0.0113.
Consider C82A A111G A145G U176A, for which the reverse-splicing fitness came to 0.184.
Then C82A A111G A145G U176G, with 0.0444.
The figure for C82A A111G A145G U176C is 0.245; for C82A A111G A120U A145U C150G C169G U176C it is 0.00281.
The figure for C82A A111G A120U A145U C150G C169G U176G is 0.00259.
For the variant C82A A111G A120U A145U C150G C169G U176A, the reverse-splicing fitness came to 0.00352.
The figure for C82A A111G A145U C150A C169U U176A is 0.0132; for C82A A111G A145U C150A C169U U176C it is 0.0109.
The figure for C82A A111G A145U C150A C169U U176G is 0.00627; for C82A A111G A145G C169G U176G it is 0.00515.
As to C82A A111G A145G C169G U176A, the reverse-splicing fitness is 0.0194.
The figure for C82A A111G A145G C169G U176C is 0.0288; for C82A A111G A120U A145G C150G C169A U176C it is 0.00953.
Then C82A A111G A120U A145G C150G C169A U176G, with 0.00369; and C82A A111G A120U A145G C150G C169A U176A, with 0.0108.
Then C82A A111G A120U A145U C150U, with 0.0232.
With C82A A111G A120U A145U C150A, the reverse-splicing fitness came to 0.00648.
Consider C82A A111G A120U A145U C150G, for which the reverse-splicing fitness was found to be 0.00746.
The figure for C82A A111G A145U C150A C169A is 0.0101.
The figure for C82A A111G A145U C150A C169G is 0.00826.
Then C82A A111G A145U C150A C169U, with 0.0106; and C82A A111G A120U A145G C150U C169U U176A, with 0.00523.
For C82A A111G A120U A145G C150U C169U U176G, the reverse-splicing fitness came out at 0.00242.
Regarding C82A A111G A120U A145G C150U C169U U176C, the reverse-splicing fitness is 0.00442.
Consider C82A A111G A145G C150G C169A U176C, for which the reverse-splicing fitness turned out to be 0.0154.
The figure for C82A A111G A145G C150G C169A U176A is 0.0148; for C82A A111G A145G C150G C169A U176G it is 0.00909; for C82A A111G A120U A145U C150U C169U it is 0.00376.
The figure for C82A A111G A120U A145U C150U C169G is 0.00324; for C82A A111G A120U A145U C150U C169A it is 0.00329; for C82A A111G A145G C150G C169G U176C it is 0.011.
The figure for C82A A111G A145G C150G C169G U176G is 0.00597.
With C82A A111G A145G C150G C169G U176A, the reverse-splicing fitness came out at 0.0112.
Turning to C82A A111G A120U C150G C169U U176C, the reverse-splicing fitness is 0.00511.
For the variant C82A A111G A120U C150G C169U U176A, the reverse-splicing fitness turned out to be 0.00322.
The figure for C82A A111G A120U C150G C169U U176G is 0.00249.
Then C82A A111G A120U A145G C150A C169U U176A, with 0.0049; and C82A A111G A120U A145G C150A C169U U176G, with 0.00288.
As to C82A A111G A120U A145G C150A C169U U176C, the reverse-splicing fitness turned out to be 0.00493.
On to C82A A111G A120U A145U C169G U176C, for which the reverse-splicing fitness worked out at 0.00235.
Then C82A A111G A120U A145U C169G U176A, with 0.00272.
Then C82A A111G A120U A145U C169G U176G, with 0.00177.
Turning to C82A A111G A120U A145G C150A U176G, the reverse-splicing fitness turned out to be 0.00419.
Then C82A A111G A120U A145G C150A U176C, with 0.00808; and C82A A111G A120U A145G C150A U176A, with 0.00782.
On to C82A A111G A120U A145U C150A C169U U176A, for which the reverse-splicing fitness is 0.00277.
Then C82A A111G A120U A145U C150A C169U U176C, with 0.00285.
C82A A111G A120U A145U C150A C169U U176G: the reverse-splicing fitness amounted to 0.0018.
C82A A111G A145C C150A C169G U176A: the reverse-splicing fitness is 0.0291.
The figure for C82A A111G A145C C150A C169G U176C is 0.0145; for C82A A111G A145C C150A C169G U176G it is 0.00722; for C82A A111G A120U A145U it is 0.0342.
The figure for C82A A111G A120U A145G C169A U176C is 0.00333; for C82A A111G A120U A145G C169A U176G it is 0.002.
Then C82A A111G A120U A145G C169A U176A, with 0.0033; and C82A A111G A120U A145G C150A C169A U176C, with 0.0046; and C82A A111G A120U A145G C150A C169A U176A, with 0.00865.
Turning to C82A A111G A120U A145G C150A C169A U176G, the reverse-splicing fitness amounted to 0.00291.
The figure for C82A A111G A145U C150A C169G U176G is 0.00624; for C82A A111G A145U C150A C169G U176C it is 0.016; for C82A A111G A145U C150A C169G U176A it is 0.0174.
The figure for C82A A111G A120U A145U U176C is 0.0146; for C82A A111G A120U A145U U176G it is 0.00433; for C82A A111G A120U A145U U176A it is 0.00893.
The figure for C82A A111G A120U A145U C150A C169A is 0.00209; for C82A A111G A120U A145U C150A C169U it is 0.00275.
On to C82A A111G A120U A145U C150A C169G, for which the reverse-splicing fitness was determined as 0.00258.
For the variant C82A A111G A145G C150A C169A U176G, the reverse-splicing fitness was determined as 0.00749.
Then C82A A111G A145G C150A C169A U176A, with 0.0216.
Then C82A A111G A145G C150A C169A U176C, with 0.0215; and C82A A111G A120U A145U C150U U176G, with 0.00398.
Then C82A A111G A120U A145U C150U U176A, with 0.00864.
On to C82A A111G A120U A145U C150U U176C, for which the reverse-splicing fitness was found to be 0.0108.
Then C82A A111G A145G C150G C169A, with 0.0093.
Then C82A A111G A145G C150G C169G, with 0.00786; and C82A A111G A145G C150G C169U, with 0.00932.
Then C82A A111G A120U U176G, with 0.00504.
